Results: patent US9120851B2, “Human antibodies to human angiopoietin-like protein 4” (Regeneron Pharmaceuticals, Inc., priority 2009, dated 2015)
One block for each molecule: values may come before it.

What was measured:
[1] = system: humanized ANGPTL4 mice; test: Serum TG, H4H268P2 and fenofibrate alone or in combination; type: in vivo, mouse
Protocol: The effects of the anti-ANGPTL4 antibody H4H268P2 and TG-reducing drug fenofibrate, each alone or in combination, on serum TG levels were evaluated in humanized ANGPTL4 mice. The mice were pre-bled 7 days before the experiment after 4 hours of fasting and put into 4 groups of six mice each. Groups 2 and 4 were administered with H4H268P2 at 10 mg/kg by subcutaneous injection on day 0 and groups 1 (control group) and 2 were placed on regular chow diet. Groups 3 and 4 received chow diet supplemented with 0.05% (w/w) of fenofibrate (the dosage level was determined experimentally in a pilot study). Serum was collected from a terminal bleed on day 7 after H4H268P2 and/or fenofibrate administration (after 4 hours of fasting) and analyzed by ADVIA® 1800 Chemistry System (Siemens).

[2] = system: C57BL/6 mice; test: In vivo effect of hANGPTL4-mFc on plasma lipid levels; parameters: species or system mouse
Protocol: hANGPTL4 was administered intravenously to C57BL/6 mice to determine the biological effect of hANGPTL4 on plasma lipid levels. Briefly, C57BL/6 mice were put into four groups of five animals and each group was administered with different amount of hANGPTL4-mFc protein (SEQ ID NO:480): 25 μg, 50 μg, 100 μg and 300 μg, per mouse. A control group received injections of PBS. hANGPTL4-mFc protein and PBS were administered by intravenous injection (i.v.) via tail vein. Mice were bled at 15 min, 30 min, 60 min and 120 min after delivery of hANGPTL4-mFc or PBS and plasma lipid levels were determined by ADVIA® 1650 Chemistry System (Siemens). Measurements of triglycerides, total cholesterol, low density lipoprotein (LDL), nonesterified fatty acids (NEFA-C) and high density lipoprotein (HDL) were determined for each dose group. […] Thus, the 25 μg dose of hANGPTL4-mFc was selected as a possible minimum dosage for analysis of inhibition of ANGPTL4-induced increase in serum triglyceride levels by selected anti-hANGPTL4 antibodies as described below.

[3] = molecular target: T1, hANGPTL4(26-148)-mFc (Homo sapiens, UniProt Q9BY76); test: BIACORE, full mAb or Fab over anti-mFc captured hANGPTL4(26-148)-mFc; type: binding
T1 construct: amino acid residues 26-148 of human ANGPTL4 fused in-line to mouse IgG2a (hANGPTL4-mFc)

[4] = molecular target: T1, hANGPTL4(26-148)-mFc; test: as above; type: binding; remark: listed apart in the source
Protocol: (§1) Briefly, various concentrations (3.125 nM-100 nM) of anti-hANGPTL4 antibodies (i.e., H1H268 Fab, entire H1H268 mAb, H1H284 Fab, and entire H1H284 mAb) were injected over a low density anti-mFc captured hANGPTL4(26-148)-mFc (˜68±4 RU) surface, or the surface of amino-coupled hANGPTL4(26-406)-His (R&D Systems) (450 RU) or amino-coupled cynomolgus monkey N-terminal region (amino acid residues 1-130 of SEQ ID NO:490) expressed with an C-terminal hexa-histidine tag (MfANGPTL4(1-130)-His) (1,028 RU). Kinetic analysis was performed to measure ka and kd, and KD values and half-life of antigen/antibody complex dissociation were calculated. The results are shown in Table 4 (H1H268P) and Table 5 (H1H284P).

[5] = system: MfANGPTL4(1-130)-His; test: BIACORE, full mAb or Fab over amino-coupled MfANGPTL4(1-130)-His; type: binding, cynomolgus monkey; details: for Response bound at 50 nM mAb or Fab: amino-coupled 1,028 RU
Protocol: as §1

[6] = molecular target: T2, hANGPTL4(26-406)-His (Homo sapiens, UniProt Q9BY76); test: BIACORE, full mAb or Fab over amino-coupled hANGPTL4(26-406)-His; type: binding; details: for RU bound at 50 nM mAb or Fab: amino-coupled 450 RU
T2 construct: purchased R&D Systems
T2 sequence (Q9BY76 26-406): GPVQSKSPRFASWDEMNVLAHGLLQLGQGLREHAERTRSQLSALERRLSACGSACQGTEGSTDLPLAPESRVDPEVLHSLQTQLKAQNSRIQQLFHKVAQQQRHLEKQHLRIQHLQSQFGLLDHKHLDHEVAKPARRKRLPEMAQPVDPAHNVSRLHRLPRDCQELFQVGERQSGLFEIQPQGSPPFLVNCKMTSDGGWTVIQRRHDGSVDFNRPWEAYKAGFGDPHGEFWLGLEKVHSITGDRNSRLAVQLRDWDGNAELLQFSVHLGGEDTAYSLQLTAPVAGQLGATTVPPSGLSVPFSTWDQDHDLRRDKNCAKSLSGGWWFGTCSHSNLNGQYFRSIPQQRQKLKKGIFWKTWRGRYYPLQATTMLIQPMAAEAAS
Protocol: as §1

[7] = molecular target: T3, bovine LPL (Bos taurus, UniProt P11151); test: Dose-response of ANGPTL4 protein in the LPL assay; type: biochemical; details: full dose-response of ANGPTL4 protein, determined for each experiment
T3 sequence (P11151 29-478): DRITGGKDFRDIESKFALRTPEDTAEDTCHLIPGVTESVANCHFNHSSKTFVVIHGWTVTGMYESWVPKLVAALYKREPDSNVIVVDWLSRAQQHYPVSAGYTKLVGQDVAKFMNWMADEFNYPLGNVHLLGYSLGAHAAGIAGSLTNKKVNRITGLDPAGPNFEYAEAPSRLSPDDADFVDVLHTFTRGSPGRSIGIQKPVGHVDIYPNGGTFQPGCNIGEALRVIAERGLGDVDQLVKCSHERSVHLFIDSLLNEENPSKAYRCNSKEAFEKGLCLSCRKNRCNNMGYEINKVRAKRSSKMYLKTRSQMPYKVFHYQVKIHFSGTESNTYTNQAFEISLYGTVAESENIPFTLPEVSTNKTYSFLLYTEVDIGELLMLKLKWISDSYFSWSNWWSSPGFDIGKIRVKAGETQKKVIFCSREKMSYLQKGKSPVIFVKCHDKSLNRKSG
Protocol: Briefly, 2 nM bovine LPL, 0.25 μM human ApoCII (a cofactor of LPL), 2 mg/mL BSA and 1.6 mM CaCl2, were premixed in a 96-well assay plate. Either hANGPTL4-His or hANGPTL4-mFc protein was added to the Apo/LPL mixture to a final concentration of 10 nM and 2 nM, respectively. The Apo/LPL/ANGPTL4 protein mixtures were then added together with serially diluted anti-hANGPTL4 antibodies with a starting concentration of 300 nM (for inhibition of hANGPTL4-His) or 100 nM (for inhibition of hANGPTL4-mFc) and incubated at room temperature for 30 minutes (final volume 50 μl). Following the incubation, 200 μl of reconstituted lipase substrate, 1-trinitrophenyl-amino-dodecanoyl-2-pyrendecanoyl-3-0-hexadecyl-sn-glycerol (LS-A, Progen), was added to the antibody mixture and incubated at 37° C. for two hours. Fluorescence was then measured at 342 nm/400 nm (excitation/emission) using a FlexStation® 3 Microplate Reader (Molecular Devices, CA). Fluorescence is directly proportional to LPL activity. Control I: a rabbit polyclonal antibody specific for hANGPTL4 (BioVendor). […] NT: not tested. […]

[8] = pH 5.75, 25° C., antigen captured 27 ± 0.6 RU
[9] = pH 7.2, 25° C., antigen captured 35 ± 1.9 RU

Molecule: CC(C)OC(=O)C(C)(C)Oc1ccc(C(=O)c2ccc(Cl)cc2)cc1 [fenofibrate]
TG levels reduced (mean) compared to control group on chow diet ([1]; day 7, H4H268P2 10 mg/kg s.c. day 0, fenofibrate 0.05% (w/w) in chow): ~25%
liver enlargement (liver weight/body weight) compared to control chow diet ([1]; mice that consumed fenofibrate for 7 days (groups 3 and 4)): 1.8 times

B1: hANGPTL4(26-148)-mFc: amino acid residues 26-148 of human ANGPTL4 fused in-line to mouse IgG2a (SEQ ID NO:480) (protein)
chain: GPVQSKSPRFASWDEMNVLAHGLLQLGQGLREHAERTRSQLSALERRLSACGSACQGTEGSTDLPLAPESRVDPEVLHSLQTQLKAQNSRIQQLFHKVAQQQRHLEKQHLRIQHLQSQFGLLDPGSLEFALERNSGEPRGPTIKPCPPCKCPAPNLLGGPSVFIFPPKIKDVLMISLSPIVTCVVVDVSEDDPDVQISWFVNNVEVHTAQTQTHREDYNSTLRVVSALPIQHQDWMSGKEFKCKVNNKDLPAPIERTISKPKGSVRAPQVYVLPPPEEEMTKKQVTLTCMVTDFMPEDIYVEWTNNGKTELNYKNTEPVLDSDGSYFMYSKLRVEKKNWVERNSYSCSVVHEGLHNHHTTKSFSRTPGK
increase of circulating triglycerides as compared to control mice (PBS) ([2]; 25 μg/mouse i.v., 30 minutes post injection): greater than two-fold
total cholesterol, LDL, NEFA-C and HDL across dose groups ([2]; 25, 50, 100, 300 μg per mouse i.v., each time point post-injection): not significantly different

B2: H1H268P Fab: Fab fragment of H1H268P prepared by papain digestion (antibody, V domains shown)
VH: QVQLQESGAGLLKPSETLSLTCTVYGGSFSIHHWTWIRHPPGKGLEWIGEINHRGSTNYNPSLKSRVTISIDTSKNQFSLKLSAVTAADTAVYYCARGLRFLDWLSSYFDYWGQGTLVTVSS
VL: DIQMTQSPSSLSASVGDRVTITCRASQGISDYLAWYQQKPGKVPNLLIYAASALQSGVPSRFSGSGSGTDFTLTISSLQPEDVATYYCQNYNTAPLTFGGGTKVEIK
Response bound at 50 nM mAb or Fab (RU) [3, 8]: 20
Response bound at 50 nM mAb or Fab (RU) [3, 9]: 10
ka ([4]; pH 5.75, 25° C.): 174000 M⁻¹ s⁻¹
kd ([4]; pH 5.75, 25° C.): 0.00304 s⁻¹
ka ([4]; pH 7.2, 25° C.): 300000 M⁻¹ s⁻¹
kd ([4]; pH 7.2, 25° C.): 0.000601 s⁻¹
ka ([5]; pH 5.75, 25° C.): 312000 M⁻¹ s⁻¹
kd ([5]; pH 5.75, 25° C.): 0.00432 s⁻¹
Response bound at 50 nM mAb or Fab ([5]; pH 5.75, 25° C.): 178
ka ([5]; pH 7.2, 25° C.): 267000 M⁻¹ s⁻¹
kd ([5]; pH 7.2, 25° C.): 0.00171 s⁻¹
Response bound at 50 nM mAb or Fab ([5]; pH 7.2, 25° C.): 167
ka ([6]; pH 5.75, 25° C.): 444000 M⁻¹ s⁻¹
kd ([6]; pH 5.75, 25° C.): 0.00657 s⁻¹
RU bound at 50 nM mAb or Fab ([6]; pH 5.75, 25° C.): 10
ka ([6]; pH 7.2, 25° C.): 726000 M⁻¹ s⁻¹
kd ([6]; pH 7.2, 25° C.): 0.0118 s⁻¹
RU bound at 50 nM mAb or Fab ([6]; pH 7.2, 25° C.): 13

The next lines start with results.

Response bound at 50 nM mAb or Fab (RU) [3, 8]: 56
Response bound at 50 nM mAb or Fab (RU) [3, 9]: 29
ka ([4]; pH 5.75, 25° C.): 472000 M⁻¹ s⁻¹
kd ([4]; pH 5.75, 25° C.): 0.0016 s⁻¹
ka ([4]; pH 7.2, 25° C.): 245000 M⁻¹ s⁻¹
kd ([4]; pH 7.2, 25° C.): 0.000202 s⁻¹
kd ([5]; pH 5.75, 25° C.): 0.00619 s⁻¹
kd ([5]; pH 7.2, 25° C.): 0.00313 s⁻¹
ka ([6]; pH 5.75, 25° C.): 1.21e+06 M⁻¹ s⁻¹
kd ([6]; pH 5.75, 25° C.): 0.00173 s⁻¹
RU bound at 50 nM mAb or Fab ([6]; pH 5.75, 25° C.): 33
ka ([6]; pH 7.2, 25° C.): 1.11e+06 M⁻¹ s⁻¹
kd ([6]; pH 7.2, 25° C.): 0.000344 s⁻¹
RU bound at 50 nM mAb or Fab ([6]; pH 7.2, 25° C.): 32
B3: H1H284P Fab: Fab fragment of H1H284P prepared by papain digestion (antibody, V domains shown)
VH: QVQLVESGGGVVQPGRSLRLSCAASGFTFSSYGMHWVRQAPGKGLEWMAVISFDGGNKNNADSVKGRFTISRDNSKNTLYLQMNSLRAEDTAVYYCAKEGDRSGHPYFYYYGLDVWGQGTTVTVS
VL: DIQLTQSPSFLSASVGDRVTITCWASQGISSYLAWYQQKPGKAPKLLIYAASTLQSGVPSRFSGSGSETEFTLTISSLQPEDFATYYCQQLHSYPLTFGGGTKVEIK
ka ([5]; pH 5.75, 25° C.): 724000 M⁻¹ s⁻¹
Response bound at 50 nM mAb or Fab ([5]; pH 5.75, 25° C.): 255
ka ([5]; pH 7.2, 25° C.): 310000 M⁻¹ s⁻¹
Response bound at 50 nM mAb or Fab ([5]; pH 7.2, 25° C.): 214

EC50 [7]: 3.89 nM
B4: His-MfANGPTL4 (26-148): cynomolgus monkey ANGPTL4 N-terminal region (residues 26-148) with an N-terminal hexa-histidine tag (SEQ ID NO:488) (protein)
chain: MHHHHHHGPVQSKSPRFASWDEMNVLAHGLLQLGQGLREHAERTRSQLNALERRLSACGSACQGTEGSTALPLAPESRVDPEVLHSLQTQLKAQNSRIQQLFHKVAQQQRHLEKQHLRIQRLQSQVGLLD
